# Measured values from IntAct's records for PubMed 25036637.
# B1: BAG family molecular chaperone regulator 4 (Homo sapiens), O95429 (parent)
# chain: MSALRRSGYGPSDGPSYGRYYGPGGGDVPVHPPPPLYPLRPEPPQPPISWRVRGGGPAETTWLGEGGGGDGYYPSGGAWPEPGRAGGSHQEQPPYPSYNSNYWNSTARSRAPYPSTYPVRPELQGQSLNSYTNGAYGPTYPPGPGANTASYSGAYYAPGYTQTSYSTEVPSTYRSSGNSPTPVSRWIYPQQDCQTEAPPLRGQVPGYPPSQNPGMTLPHYPYGDGNRSVPQSGPTVRPQEDAWASPGAYGMGGRYPWPSSAPSAPPGNLYMTESTSPWPSSGSPQSPPSPPVQQPKDSSYPYSQSDQSMNRHNFPCSVHQYESSGTVNNDDSDLLDSQVQYSAEPQLYGNATSDHPNNQDQSSSLPEECVPSDESTPPSIKKIIHVLEKVQYLEQEVEEFVGKKTDKAYWLLEEMLTKELLELDSVETGGQDSVRQARKEAVCKIQAILEKLEKKGL
# partner: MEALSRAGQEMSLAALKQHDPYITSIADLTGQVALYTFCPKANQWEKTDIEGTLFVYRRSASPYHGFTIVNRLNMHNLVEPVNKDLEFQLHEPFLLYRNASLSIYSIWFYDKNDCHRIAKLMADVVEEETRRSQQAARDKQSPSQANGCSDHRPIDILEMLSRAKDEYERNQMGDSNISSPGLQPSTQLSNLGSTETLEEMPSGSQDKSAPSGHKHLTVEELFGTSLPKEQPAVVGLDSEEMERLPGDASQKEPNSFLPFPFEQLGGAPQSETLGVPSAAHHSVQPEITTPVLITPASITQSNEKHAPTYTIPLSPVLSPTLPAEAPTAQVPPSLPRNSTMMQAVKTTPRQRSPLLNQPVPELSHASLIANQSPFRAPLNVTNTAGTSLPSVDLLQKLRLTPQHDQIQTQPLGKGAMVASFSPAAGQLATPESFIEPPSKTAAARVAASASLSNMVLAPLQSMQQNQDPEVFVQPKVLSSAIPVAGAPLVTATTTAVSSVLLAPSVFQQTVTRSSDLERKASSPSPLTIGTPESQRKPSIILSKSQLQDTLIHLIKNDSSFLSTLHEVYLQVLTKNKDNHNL
# Variants of: B1
# Details: with dcp1a_human DCP1A
row,effect of a mutation on the interaction,Variant
1,disrupting interaction,D424A
